Test results reported in US20130142788A1 (published 2013).

Target: T1, recombinant mature dimeric myostatin (human and mouse (mature sequences 100% …, UniProt O08689 268-376))
T1 construct: also called GDF-8; mature myostatin
T1 sequence: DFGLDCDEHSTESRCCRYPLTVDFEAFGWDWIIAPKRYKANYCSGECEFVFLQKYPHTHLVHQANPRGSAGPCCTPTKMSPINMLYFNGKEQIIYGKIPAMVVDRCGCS
Assay: BIAcore T100 SPR, antibody captured on anti-mouse IgG, myostatin analyte, all curves Bivalent model
Procedure: The affinity of 10B3 mouse parental and 10B3C for recombinant myostatin was assessed by BIAcore™ (surface plasmon resonance) analysis. Analysis was carried out by the use of a capture surface: anti-mouse IgG was coupled to a C1 chip by primary amine coupling for 10B3 mouse parental; and a protein A surface was created on a C1 chip by primary amine coupling for 10B3 chimera.
After capture, recombinant myostatin was passed over the surface at 64 nM, 16 nM, 4 nM, 1 nM, 0.25 nM and 0.0625 nM, with a buffer injection (i.e. 0 nM) used for double referencing. There was a regeneration step between each analyte injection, after which the new antibody capture event occurred before the next injection of myostatin. The data was analysed using both the 1:1 model and the Bivalent model inherent to the T100 machines analysis software (see Table 6). Both capture surfaces could be regenerated using 100 mM phosphoric acid, the work was carried out using HBS-EP as the running buffer and using 25° C. as the analysis temperature.

- Kd: 5.9 nM
B1: mouse monoclonal antibody 10B3 (antibody, mouse IgG2a, V domains shown)
VH: EVQLQQSGPELVKPGASVKISCKASGYSFTGYFMHWVKQSHGNILDWIGNIYPYNGVSNYNQRFKAKATLTVDKSSSTAYMELRSLTSEDSAVYYCARRYYYGTGPADWYFDVWGTGTTVTVSS
VL: DIKMTQSPSSMYASLRERVTITCKASQDINSYLSWFQQKPGKSPKTLIYRANRLVDGVPSRFSGSGSGQDYSLTISSLEYEDMGIYYCLQCDEFPLTFGAGTKLELK
notes: Murine IgG2a/k; also called 10B3 mouse parental; parental 10B3
